What all share (settings): both partners purified
Assay [1] concerns the target pancreatic bovine trypsin (Bos taurus, UniProt P00760). The assay can be described thus: BLI; His-tagged DesAb (7.5 μM) loaded to saturation on Ni-NTA sensors, trypsin in solution; 170 mM NaCl, 50 mM tris-HCl, 10 mM MgCl2 pH 7.4; 25°C. Background: Biolayer interferometry detects binding as a change in optical thickness at a sensor tip.
The target of assay [2] is T1, human serum albumin (Homo sapiens, UniProt P02768).
T1 construct: also called HSA
The assay can be described thus: BLI; HSA (4 μM) loaded on APS sensors; DesAbs at 1 μM, 500 nM and 250 nM (Nb.B201 at 800 and 400 nM); 170 mM NaCl, 50 mM tris-HCl, 10 mM MgCl2 pH 7.4; 25°C; global fit, Kd = Koff/Kon.

Assay [3] addresses T2, SARS-CoV-2 Spike Glycoprotein (S1) His-Tagged RBD (SARS-CoV-2, UniProt P0DTC2).
T2 construct: source: bought: The Native Antigen Company (REC31849), produced in HEK293 cells
The assay can be described thus: BLI.

The target in assay [4] is T1, human serum albumin. The assay can be described thus: BLI; HSA (4 μM) loaded on APS sensors; DesAbs at 1 μM, 500 nM and 250 nM (Nb.B201 at 800 and 400 nM); 170 mM NaCl, 50 mM tris-HCl, 10 mM MgCl2 pH 7.4; 25°C; global fit, Kd = Koff/Kon. The source holds these as a separate data set.
Assay [5] has as its target T2, SARS-CoV-2 Spike Glycoprotein (S1) …. As to the kind of experiment: BLI. This is another data set of the same source.
Assay [6] deals with T1, human serum albumin. The assay can be described thus: BLI.
For assay [7], the target named is T1, human serum albumin. The assay can be described thus: BLI. This is another data set of the same source.

Chain of pancreatic bovine trypsin (P00760 24-246): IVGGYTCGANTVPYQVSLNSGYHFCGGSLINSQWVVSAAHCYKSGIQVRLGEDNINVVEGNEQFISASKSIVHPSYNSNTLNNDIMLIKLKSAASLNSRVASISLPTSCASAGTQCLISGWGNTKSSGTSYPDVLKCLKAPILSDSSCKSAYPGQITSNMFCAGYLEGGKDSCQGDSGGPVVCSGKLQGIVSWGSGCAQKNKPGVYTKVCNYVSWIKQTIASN

B1: DesAb-Tryp (VHH)
VHH: EVQLEESGGGLVQPGGSLRLSCAASGFNIKDTYIGWVRQAPGKGEEWVASIYPTSGYTRYADSVKGRFTISADTSKNTAYLQMNSLRAEDTAVYYCAAGSQSGYHFEEFDYWGQGTLVTVSS
For orientation: Kd means a measure of binding affinity in units of concentration. Low readings indicate a tighter complex, high ones a looser complex. In turn, B1 returned a Kd in assay [1] of 1800 nM. For the same molecule, the figures for the binding result (with human serum albumin [2]; in assay [3]) were “no binding (tested: 1 μM)” and “no binding (tested: 4 μM)”, respectively.

B2: DesAb-HSA-P2 (VHH)
VHH: EVQLEESGGGLVQPGGSLRLSCAASGFNIKDTYIGWVRQAPGKGEEWVASIYPTSGYTRYADSVKGRFTISADTSKNTAYLQMNSLRAEDTAVYYCAAGSAQAGNAEEAEEEFDYWGQGTLVTVSS
With B2, binding in the assay with human serum albumin [4] was characterised by a dissociation constant (Kd) of 380 nM.

B3: DesAb-RBD-C1 (VHH)
VHH: EVQLEESGGGLVQPGGSLRLSCAASGFNIKDTYIGWVRQAPGKGEEWVASIYPTSGYTRYADSVKGRFTISADTSKNTAYLQMNSLRAEDTAVYYCAAGSGSSATEVYEEFDYWGQGTLVTVSS
Molecule B3 returned a Kd in assay [5] of 210 nM.

B4: Nb.B201 (VHH)
VHH: QVQLQESGGGLVQAGGSLRLSCAASGYISDAYYMGWYRQAPGKEREFVATITHGTNTYYADSVKGRFTISRDNAKNTVYLQMNSLKPEDTAVYYCAVLETRSYSFRYWGQGTQVTVSS
notes: also called yeast display-derived anti-HSA nanobody
Turning to B4, in the assay with human serum albumin [6], the binding result is listed as “binds”.

B5: DesAb-RBD-C2 (VHH)
VHH: EVQLEESGGGLVQPGGSLRLSCAASGFNIKDTYIGWVRQAPGKGEEWVASIYPTSGYTRYADSVKGRFTISADTSKNTAYLQMNSLRAEDTAVYYCAAGSVVADLSVEEFDYWGQGTLVTVSS
In the case of B5, in assay [5], the Kd turned out to be 130 nM.

B6: DesAb-HSA-P1 (VHH)
VHH: EVQLEESGGGLVQPGGSLRLSCAASGFNIKDTYIGWVRQAPGKGEEWVASIYPTSGYTRYADSVKGRFTISADTSKNTAYLQMNSLRAEDTAVYYCAAGSIQKSLQTAESILEEFDYWGQGTLVTVSS
Regarding B6, in the assay with human serum albumin [7], binding was characterised by a dissociation constant (Kd) of 120 nM.

B7: DesAb-HSA-D3 (VHH)
VHH: EVQLQESGGGLVQAGGSLRLSCAASGELYALISMGWFRQAPGKEREFVAAISRNGDNTYYTDSVKGRFTISRDNAKNTVELQMNSLKPEDTAVYYCAADKFASPDGSVTIMTNEYDYWGQGTQVTVSD
In turn, B7 returned an equilibrium dissociation constant (Kd) in the assay with human serum albumin [7] of 180 nM.

(Values after PMC9651861 (Science Advances, 2022).)
